In patent CN117643628A (SHANGHAI JUNSHI BIOSCIENCES CO LTD; JUNMENG BIOSCIENCES CO …, dated 2024):

Target: SARS-COV-2野生型毒株Spike蛋白的RBD (SARS-COV-2野生型毒株, UniProt P0DTC2 319-541)
Test: BLI (Octet), antibody captured on Protein A probes, RBD at 15 nM and 60 nM in solution

B1: HUR33变体 (antibody, human IgG1, kappa, V domains shown)
VH: QVQLVQSGSELKKPGASVKVSCKASGYTFTDYGMNWVRQAPGQGLEWMGWINTYSGEPTYADDFRGRFVFSLDTSVSTAYLQISSLKAEDTAVYYCARGGNWDWYFDVWGQGTLVTVSS
VL: DIQMTQSPSSLSASVGDRVTITCRASQSVSNFLHWYQQKPGKAPKLLIYYASQSISGVPSRFSGSGSGTDFTLTISSLQPEDFATYYCQQSNTWPLTFGQGTKLEIKR
notes: also called HUR33-1; HUR33 variant
B1: binds.
